Reference: patent US20250353920A1 (SUBDOMAIN, published 2025)

T1: CD123 (Homo sapiens (Human), UniProt P26951 19-305, limits assumed)
T1 sequence: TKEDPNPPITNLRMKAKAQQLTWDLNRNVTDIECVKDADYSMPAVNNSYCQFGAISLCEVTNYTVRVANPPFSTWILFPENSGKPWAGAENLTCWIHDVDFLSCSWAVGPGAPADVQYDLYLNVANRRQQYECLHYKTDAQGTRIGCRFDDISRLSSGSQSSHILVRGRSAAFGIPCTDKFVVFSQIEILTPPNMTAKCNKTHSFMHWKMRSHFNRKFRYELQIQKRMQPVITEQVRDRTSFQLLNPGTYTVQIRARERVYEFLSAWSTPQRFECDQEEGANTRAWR


Legend:
CD123 = target: T1, CD123; assay: library selection; assay not told
control (IgG Fc) [1] = assay: phage ELISA, 89 identical clones, control wells
control (IgG Fc) [2] = assay: phage ELISA, control wells, lower end of the distribution
control (IgG Fc) [3] = assay: phage ELISA, control wells, upper end of the distribution

Binder | binding result (CD123) | ELISA absorbance (control (IgG Fc) [1]) [OD] | ELISA absorbance (control (IgG Fc) [2]) [OD] | ELISA absorbance (control (IgG Fc) [3]) [OD]
SEQ ID NO 101 (designed binder, DBDpp, library F3) MGSWTEFDRRLDAIWDRLFALGGSEAELAAFEKEIAAFESELQAYKGKGNPEVEWLREEAADIRDYLQAYRHN | binds | – | – | –
SEQ ID NO 102 (designed binder, DBDpp, library F3) MGSWTEFDRRLDAIWDRLFALGGSEAELAAFEKEIAAFESELQAYKGKGNPEVEWLREEAADIRDYLQAYRHN | binds | – | – | –

The remaining lines, values ahead:

binding result (CD123) | ELISA absorbance (control (IgG Fc) [1]) [OD] | ELISA absorbance (control (IgG Fc) [2]) [OD] | ELISA absorbance (control (IgG Fc) [3]) [OD] | Binder
binds | – | – | – | SEQ ID NO 114 (designed binder, DBDpp, library F3) MGSWTEFDRRLDAIWDRLFALGGSEAELAAFEKEIAAFESELQAYKGKGNPEVEWLREEAADIRDYLQAYRHN
– | 0.067 | 0.056 | 0.125 | bb10 (designed binder) MGSWAEFKQRLAAIKTRLEALGGSEAELAAFLGEIWAFEMELAAYKGKGNPEVEALGREAAAIRMELQAYRHN
